# ± gives the standard deviation of the averaged measurements.
# Assays:
# [1] = test system: hTERT-HMEC; assay: percentage of EdU-negative (G0-arrested) nuclei per well, 72 h; higher = more G0 arrest; settings: reference: sequence is the full UniProt precursor, the tested protein was the secreted form or ectodomain
# [2] = test system: MCF7; assay: as above; settings: reference: sequence is the full UniProt precursor, the tested protein was the secreted form or ectodomain
# [3] = protein concentration 0.02075 µM
# [4] = protein concentration 0.2075 µM
# [5] = protein concentration 0.02175 µM
# [6] = protein concentration 0.2175 µM
# [7] = protein concentration 0.03125 µM
# [8] = protein concentration 0.3125 µM
# [9] = protein concentration 0.01975 µM
# [10] = protein concentration 0.1975 µM
# 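Note: secreted proteins added to cultured cells, EdU pulse at the end, nuclei found by Hoechst imaging, EdU status from nuclear versus surrounding ring intensity ratio, PBS as neutral control.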
sequence,measurement,setting,value
MTSKPHSDWIPYSVLDDEGRNLRQQKLDRQRALLEQKQKKKRQEPLMVQANADGRPRSRRARQSEEQAPLVESYLSSSGSTSYQVQEADSLASVQLGATRPTAPASAKRTKAAATAGGQGGAARKEKKGKHKGTSGPAALAEDKSEAQGPVQILTVGQSDHAQDAGETAAGGGERPSGQDLRATMQRKGISSSMSFDEDEEDEEENSSSSSQLNSNTRPSSATSRKSVREAASAPSPTAPEQPVDVEVQDLEEFALRPAPQGITIKCRITRDKKGMDRGMYPTYFLHLDREDGKKVFLLAGRKRKKSKTSNYLISVDPTDLSRGGDSYIGKLRSNLMGTKFTVYDNGVNPQKASSSTLESGTLRQELAAVCYETNVLGFKGPRKMSVIVPGMNMVHERVSIRPRNEHETLLARWQNKNTESIIELQNKTPVWNDDTQSYVLNFHGRVTQASVKNFQIIHGNDPDYIVMQFGRVAEDVFTMDYNYPLCALQAFAIALSSFDSKLACE,percentage of EdU-negative,[1]; [3],4.99 ± 0.76%
same,percentage of EdU-negative,[1]; [4],7.63 ± 0.81%
same,percentage of EdU-negative,[2]; [3],24.8 ± 1.5%
same,percentage of EdU-negative,[2]; [4],29.6 ± 0.96%
MTSSGPGPRFLLLLPLLLPPAASASDRPRGRDPVNPEKLLVITVATAETEGYLRFLRSAEFFNYTVRTLGLGEEWRGGDVARTVGGGQKVRWLKKEMEKYADREDMIIMFVDSYDVILAGSPTELLKKFVQSGSRLLFSAESFCWPEWGLAEQYPEVGTGKRFLNSGGFIGFATTIHQIVRQWKYKDDDDDQLFYTRLYLDPGLREKLSLNLDHKSRIFQNLNGALDEVVLKFDRNRVRIRNVAYDTLPIVVHGNGPTKLQLNYLGNYVPNGWTPEGGCGFCNQDRRTLPGGQPPPRVFLAVFVEQPTPFLPRFLQRLLLLDYPPDRVTLFLHNNEVFHEPHIADSWPQLQDHFSAVKLVGPEEALSPGEARDMAMDLCRQDPECEFYFSLDADAVLTNLQTLRILIEENRKVIAPMLSRHGKLWSNFWGALSPDEYYARSEDYVELVQRKRVGVWNVPYISQAYVIRGDTLRMELPQRDVFSGSDTDPDMAFCKSFRDKGIFLHLSNQHEFGRLLATSRYDTEHLHPDLWQIFDNPVDWKEQYIHENYSRALEGEGIVEQPCPDVYWFPLLSEQMCDELVAEMEHYGQWSGGRHEDSRLAGGYENVPTVDIHMKQVGYEDQWLQLLRTYVGPMTESLFPGYHTKARAVMNFVVRYRPDEQPSLRPHHDSSTFTLNVALNHKGLDYEGGGCRFLRYDCVISSPRKGWALLHPGRLTHYHEGLPTTWGTRYIMVSFVDP,percentage of EdU-negative,[1]; [5],5.45 ± 1.1%
same,percentage of EdU-negative,[1]; [6],8.17 ± 1.2%
same,percentage of EdU-negative,[2]; [5],25.1 ± 1%
same,percentage of EdU-negative,[2]; [6],28.2 ± 1.3%
MTSSLLLAFLLLAPTTVATPRAGGQCPACGGPTLELESQRELLLDLAKRSILDKLHLTQRPTLNRPVSRAALRTALQHLHGVPQGALLEDNREQECEIISFAETGLSTINQTRLDFHFSSDRTAGDREVQQASLMFFVQLPSNTTWTLKVRVLVLGPHNTNLTLATQYLLEVDASGWHQLPLGPEAQAACSQGHLTLELVLEGQVAQSSVILGGAAHRPFVAARVRVGGKHQIHRRGIDCQGGSRMCCRQEFFVDFREIGWHDWIIQPEGYAMNFCIGQCPLHIAGMPGIAASFHTAVLNLLKANTAAGTTGGGSCCVPTARRPLSLLYYDRDSNIVKTDIPDMVVEACGCS,percentage of EdU-negative,[1]; [7],4.58 ± 0.61%
same,percentage of EdU-negative,[1]; [8],5.17 ± 0.32%
same,percentage of EdU-negative,[2]; [7],25.8 ± 2.3%
same,percentage of EdU-negative,[2]; [8],27.7 ± 2.4%
MTSSLQRPWRVPWLPWTILLVSTAAASQNQERLCAFKDPYQQDLGIGESRISHENGTILCSKGSTCYGLWEKSKGDINLVKQGCWSHIGDPQECHYEECVVTTTPPSIQNGTYRFCCCSTDLCNVNFTENFPPPDTTPLSPPHSFNRDETIIIALASVSVLAVLIVALCFGYRMLTGDRKQGLHSMNMMEAAASEPSLDLDNLKLLELIGRGRYGAVYKGSLDERPVAVKVFSFANRQNFINEKNIYRVPLMEHDNIARFIVGDERVTADGRMEYLLVMEYYPNGSLCKYLSLHTSDWVSSCRLAHSVTRGLAYLHTELPRGDHYKPAISHRDLNSRNVLVKNDGTCVISDFGLSMRLTGNRLVRPGEEDNAAISEVGTIRYMAPEVLEGAVNLRDCESALKQVDMYALGLIYWEIFMRCTDLFPGESVPEYQMAFQTEVGNHPTFEDMQVLVSREKQRPKFPEAWKENSLAVRSLKETIEDCWDQDAEARLTAQCAEERMAELMMIWERNKSVSPTVNPMSTAMQNERNLSHNRRVPKIGPYPDYSSSSYIEDSIHHTDSIVKNISSEHSMSSTPLTIGEKNRNSINYERQQAQARIPSPETSVTSLSTNTTTTNTTGLTPSTGMTTISEMPYPDETNLHTTNVAQSIGPTPVCLQLTEEDLETNKLDPKEVDKNLKESSDENLMEHSLKQFSGPDPLSSTSSSLLYPLIKLAVEATGQQDFTQTANGQACLIPDVLPTQIYPLPKQQNLPKRPTSLPLNTKNSTKEPRLKFGSKHKSNLKQVETGVAKMNTINAAEPHVVTVTMNGVAGRNHSVNSHAATTQYANGTVLSGQTTNIVTHRAQEMLQNQFIGEDTRLNINSSPDEHEPLLRREQQAGHDEGVLDRLVDRRERPLEGGRTNSNNNNSNPCSEQDVLAQGVPSTAADPGPSKPRRAQRPNSLDLSATNVLDGSSIQIGESTQDGKSGSGEKIKKRVKTPYSLKRWRPSTWVISTESLDCEVNNNGSNRAVHSKSSTAVYLAEGGTATTMVSKDIGMNCL,percentage of EdU-negative,[1]; [7],4.72 ± 0.9%
same,percentage of EdU-negative,[1]; [8],6.26 ± 1.5%
same,percentage of EdU-negative,[2]; [7],26.3 ± 0.7%
same,percentage of EdU-negative,[2]; [8],24 ± 3.6%
MTSSRLWFSLLLAAAFAGRATALWPWPQNFQTSDQRYVLYPNNFQFQYDVSSAAQPGCSVLDEAFQRYRDLLFGSGSWPRPYLTGKRHTLEKNVLVVSVVTPGCNQLPTLESVENYTLTINDDQCLLLSETVWGALRGLETFSQLVWKSAEGTFFINKTEIEDFPRFPHRGLLLDTSRHYLPLSSILDTLDVMAYNKLNVFHWHLVDDPSFPYESFTFPELMRKGSYNPVTHIYTAQDVKEVIEYARLRGIRVLAEFDTPGHTLSWGPGIPGLLTPCYSGSEPSGTFGPVNPSLNNTYEFMSTFFLEVSSVFPDFYLHLGGDEVDFTCWKSNPEIQDFMRKKGFGEDFKQLESFYIQTLLDIVSSYGKGYVVWQEVFDNKVKIQPDTIIQVWREDIPVNYMKELELVTKAGFRALLSAPWYLNRISYGPDWKDFYIVEPLAFEGTPEQKALVIGGEACMWGEYVDNTNLVPRLWPRAGAVAERLWSNKLTSDLTFAYERLSHFRCELLRRGVQAQPLNVGFCEQEFEQT,percentage of EdU-negative,[1]; [9],5.032 ± 0.0092%
same,percentage of EdU-negative,[1]; [10],20.1 ± 1.8%
same,percentage of EdU-negative,[2]; [9],25.5 ± 0.27%
same,percentage of EdU-negative,[2]; [10],26.4 ± 5.3%

# Source: the supplement of paper PMC11316812
